# Changes are numbered by the printed parent chain.
# B1: 1B20 variant G2 (antibody, part only; not given: light chain, probably the common parent VL, V domains shown, part only)
# VH: QVKLVQSGAEVKKPGESLKISCKGSGYSFTDYYISWVRQMPGKGLEWMGIIYPGDSYTHYNPKFQGQVTISADKSISTAYLQWSSLKASDTAMYYCARDRWSKPLFDVWGQGTLVTVSS
# B2: 1B20 variant A4 (antibody, part only; not given: light chain, probably the common parent VL, V domains shown, part only)
# VH: B1 VH with K3Q, I50S, N61S, P62H, M93I, R100H, K103R, L105F
# B3: 1B20 variant H3 (antibody, part only; not given: light chain, probably the common parent VL, V domains shown, part only)
# VH: B1 VH with K3Q, D31N, S35T, I50M, N61S, P62Q, K63R, M93I, R100H, K103R
# B4: 1B20 variant C8 (antibody, part only; not given: light chain, V domains shown, part only)
# VH: QVQLVQSGAEVKKPGESLKISCKGSGYSFTNYYIAWVRQMPGKGLEWMGMIYPGDSYTSYSHRFQGQVTISADKSISTAYLQWSSLKASDTAMYYCARDHWYRPYFDIWGQGTLVTVSS
# B5: 1B20 variant A6 (antibody, part only; not given: light chain, V domains shown, part only)
# VH: QVQLVQSGAEVKKPGESLKISCKGSGYSFTNYYISWVRQMPGKGLEWMGLIYPGDSYTRYNPSFQGQVTISADKSISTAYLQWSSLKASDTAMYYCARDYYSRPFSDIWGQGTLVTVSS
# B6: 1B20 variant A3 (antibody, part only; not given: light chain, V domains shown, part only)
# VH: B4 VH with N31D, A35S, S59R, H62P, R63N, Y105L, F106S
# B7: 1B20 variant F7 (antibody, part only; not given: light chain, V domains shown, part only)
# VH: B1 VH with K3Q, D31N, S35A, R100H, K103R, L105F, F106S
# B8: 1B20 variant E3 (antibody, part only; not given: light chain, V domains shown, part only)
# VH: B4 VH with N31D, A35S, H62P, H100Y, Y105F, F106S
# B9: 1B20 variant H5 (antibody, part only; not given: light chain, probably the common parent VL, V domains shown, part only)
# VH: B1 VH with K3Q, H59S, N61S, K63R, R100Y, K103R
# B10: 1B20 variant B6 (antibody, part only; not given: light chain, probably the common parent VL, V domains shown, part only)
# VH: B5 VH with N31D, L50I, R59N, Y101W, S102Y
# B11: 1B20 variant A7 (antibody, part only; not given: light chain, V domains shown, part only)
# VH: B1 VH with K3Q, D31N, H59R, K63N, R100Y, F106S
# B12: 1B20 variant E1 (antibody, part only; not given: light chain, probably the common parent VL, V domains shown, part only)
# VH: B4 VH with A35S, S61N, H62P, R63N, Y102S, R103K, Y105F
# B13: 1B20 variant G3 (antibody, part only; not given: light chain, probably the common parent VL, V domains shown, part only)
# VH: B5 VH with S63K, F105Y, I108V
# B14: 1B20 variant F6 (antibody, part only; not given: light chain, probably the common parent VL, V domains shown, part only)
# VH: B5 VH with R59H, Y100H, Y101W, S102Y, R103K
# B15: 1B20 variant D3 (antibody, part only; not given: light chain, V domains shown, part only)
# VH: B1 VH with K3Q, S35T, I50M, H59R, N61S, R100Y, L105F
# B16: 1B20 variant H4 (antibody, part only; not given: light chain, probably the common parent VL, V domains shown, part only)
# VH: B1 VH with K3Q, D31N, S35T, K43R, H59R, R100H, L105F, F106S
# B17: 1B20 variant C2 (antibody, part only; not given: light chain, probably the common parent VL, V domains shown, part only)
# VH: B4 VH with N31D, M50L, S61N, H62P, H100Y, Y102S, R103T
# B18: 1B20 variant A8 (antibody, part only; not given: light chain, probably the common parent VL, V domains shown, part only)
# VH: B1 VH with K3Q, D31N, I50M, N61S, K63N, R100Y, L105Y
# B19: 1B20 variant G6 (antibody, part only; not given: light chain, probably the common parent VL, V domains shown, part only)
# VH: B1 VH with K3Q, S35N, I50M, H59N, M93I, R100H, K103R, L105F, F106S
# B20: 1B20 variant C7 (antibody, part only; not given: light chain, probably the common parent VL, V domains shown, part only)
# VH: B1 VH with K3Q, I50W, N61S, P62H, K63N, R100H, K103R, L105F, F106S
# B21: 1B20 variant H1 (antibody, part only; not given: light chain, probably the common parent VL, V domains shown, part only)
# VH: B1 VH with K3Q, S35A, H59R, K63R, R100Y, F106S, V108I
# B22: 1B20 variant C1 (antibody, part only; not given: light chain, probably the common parent VL, V domains shown, part only)
# VH: B4 VH with A35S, S59R, H62P, R63K, F106S
# B23: 1B20 variant G5 (antibody, part only; not given: light chain, V domains shown, part only)
# VH: B5 VH with N31D, N61S, S63N, Y100H, Y101G, S102Y, F105Y
# B24: 1B20 variant F4 (antibody, part only; not given: light chain, probably the common parent VL, V domains shown, part only)
# VH: B5 VH with N31D, N61S, R103K, F105L, S106F, I108V
# B25: 1B20 variant C6 (antibody, part only; not given: light chain, V domains shown, part only)
# VH: B4 VH with A35T, S59H, S61N, H62P, R63S, R103K, Y105L
# B26: 1B20 variant B3 (antibody, part only; not given: light chain, probably the common parent VL, V domains shown, part only)
# VH: B4 VH with A35S, S61N, H62P, R63K, Y102S, R103K
# B27: 1B20 variant E8 (antibody, part only; not given: light chain, probably the common parent VL, V domains shown, part only)
# VH: B1 VH with K3Q, D31N, S35T, I50M, H59R, N61S, R100H, F106S
# B28: 1B20 variant B1 (antibody, part only; not given: light chain, probably the common parent VL, V domains shown, part only)
# VH: B1 VH with K3Q, N61S, K63N, R100Y, S102Y, K103T, L105F
# B29: 1B20 variant E2 (antibody, part only; not given: light chain, probably the common parent VL, V domains shown, part only)
# VH: B5 VH with P62R, S63K, F105L, I108V
# B30: 1B20 variant A1 (antibody, part only; not given: light chain, probably the common parent VL, V domains shown, part only)
# VH: B5 VH with N31D, Y101W, R103K, F105L
# B31: 1B20 variant F5 (antibody, part only; not given: light chain, probably the common parent VL, V domains shown, part only)
# VH: B4 VH with N31D, A35T, S59N, S61R, R63N, H100Y, Y102S
# B32: 1B20 variant B9 (antibody, part only; not given: light chain, V domains shown, part only)
# VH: B5 VH with L50I, T58I, R59H, P62Q, S63N
# B33: 1B20 variant F2 (antibody, part only; not given: light chain, V domains shown, part only)
# VH: B5 VH with S35A, L50V, S63K, Y101W, F105Y, S106F
# B34: 1B20 variant B8 (antibody, part only; not given: light chain, V domains shown, part only)
# VH: B1 VH with K3Q, D31N, I50M, N61S, K63N, R100Y, L105Y
# B35: 1B20 variant D4 (antibody, part only; not given: light chain, probably the common parent VL, V domains shown, part only)
# VH: B5 VH with N31D, S35A, L50I, S63K, Y101W, I108V
# B36: 1B20 variant D8 (antibody, part only; not given: light chain, V domains shown, part only)
# VH: B4 VH with N31D, A35S, S59H, H62Q, R63S, Y105L
# B37: 1B20 variant G4 (antibody, part only; not given: light chain, probably the common parent VL, V domains shown, part only)
# VH: B4 VH with A35S, M50L, S59R, H62P, W101G, R103K, F106S
# B38: 1B20 variant E5 (antibody, part only; not given: light chain, probably the common parent VL, V domains shown, part only)
# VH: B1 VH with K3Q, I50W, K63N, K103T, L105Y
# B39: 1B20 variant G7 (antibody, part only; not given: light chain, probably the common parent VL, V domains shown, part only)
# VH: B1 VH with K3Q, I50W, N61S, K63S, R100H, L105Y
# B40: 1B20 variant F8 (antibody, part only; not given: light chain, probably the common parent VL, V domains shown, part only)
# VH: B5 VH with L50M, R59N, P62Q, S63K, Y101W, F105Y
# B41: 1B20 variant H7 (antibody, part only; not given: light chain, probably the common parent VL, V domains shown, part only)
# VH: B4 VH with N31D, A35S, L45P, S59R, H62Q, R63K, M93I, Y102S, Y105L, F106S
# B42: 1B20 variant G8 (antibody, part only; not given: light chain, probably the common parent VL, V domains shown, part only)
# VH: B1 VH with K3Q, I50L, K63N, R100H, L105Y
# B43: 1B20 variant D5 (antibody, part only; not given: light chain, probably the common parent VL, V domains shown, part only)
# VH: B4 VH with A35T, M50L, S59R, H62P, Y102S, F106S, I108V
# B44: 1B20 variant H8 (antibody, part only; not given: light chain, probably the common parent VL, V domains shown, part only)
# VH: B1 VH with K3Q, I50M, N61S, P62Q, K63N, R100H, K103R, L105F
# B45: 1B20 variant A5 (antibody, part only; not given: light chain, probably the common parent VL, V domains shown, part only)
# VH: B1 VH with K3Q, I50W, K63M, K103R, L105Y, V108I
# B46: 1B20 variant C3 (antibody, part only; not given: light chain, probably the common parent VL, V domains shown, part only)
# VH: B1 VH with D31N, S35A, R100H, W101G, S102Y, L105F, F106S, V108I
# B47: 1B20 variant A9 (antibody, part only; not given: light chain, probably the common parent VL, V domains shown, part only)
# VH: B4 VH with A35S, S59R, H62P, R63K, F106S
# B48: 1B20 variant B4 (antibody, part only; not given: light chain, probably the common parent VL, V domains shown, part only)
# VH: B1 VH with K3Q, I50L, K63N, R100Y
# B49: 1B20 variant B2 (antibody, part only; not given: light chain, probably the common parent VL, V domains shown, part only)
# VH: B5 VH with R59N, S63N, Y100H, R103T, S106F, I108V
# B50: 1B20 variant F1 (antibody, part only; not given: light chain, probably the common parent VL, V domains shown, part only)
# VH: B1 VH with K3Q, I50L, H59N, N61S, R100H, F106S
# B51: 1B20 variant B5 (antibody, part only; not given: light chain, probably the common parent VL, V domains shown, part only)
# VH: B5 VH with N31D, L50M, N61S, W83S, Y101W, S102Y, R103K, I108V
# B52: 1B20 variant E4 (antibody, part only; not given: light chain, probably the common parent VL, V domains shown, part only)
# VH: B1 VH with K3Q, D31N, I50W, H59S, P62Q, R100Y, L105Y, F106S
# Biological target: PCSK9
# Assay: Biacore SPR
row,Kd,Binder
1,2.11 nM,B1
2,2.15 nM,B2
3,1.89 nM,B3
4,3.73 nM,B4
5,1.39 nM,B5
6,7.93 nM,B6
7,1.26 nM,B7
8,2.62 nM,B8
9,2.41 nM,B9
10,2.88 nM,B10
11,1.28 nM,B11
12,1.36 nM,B12
13,1.53 nM,B13
14,2.68 nM,B14
15,2.68 nM,B15
16,1.52 nM,B16
17,2.25 nM,B17
18,1.19 nM,B18
19,2.2 nM,B19
20,2.53 nM,B20
21,2.01 nM,B21
22,1.65 nM,B22
23,1.65 nM,B23
24,3.14 nM,B24
25,2.1 nM,B25
26,1.21 nM,B26

row,Kd,Binder
1,1.62 nM,B27
2,3.73 nM,B28
3,2.62 nM,B29
4,2.15 nM,B30
5,2.41 nM,B31
6,3.81 nM,B32
7,1.01 nM,B33
8,4.47 nM,B34
9,1.91 nM,B35
10,3.21 nM,B36
11,2.9 nM,B37
12,4.22 nM,B38
13,2.05 nM,B39
14,1.35 nM,B40
15,4.9 nM,B41
16,1.51 nM,B42
17,1.6 nM,B43
18,1.35 nM,B44
19,6.81 nM,B45
20,4.5 nM,B46
21,1.95 nM,B47
22,2.01 nM,B48
23,2.21 nM,B49
24,3.47 nM,B50
25,1.36 nM,B51
26,2.38 nM,B52
